This note sets out measurements from publication doi:10.1101/2022.10.14.512215 (bioRxiv, 2022).

B7: RIP2K^1-317 (kinase domain of human RIP2, residues 1-317) (domain or fragment)
chain: MNGEAICSALPTIPYHKLADLRYLSRGASGTVSSARHADWRVQVAVKHLHIHTPLLDSERKDVLREAEILHKARFSYILPILGICNEPEFLGIVTEYMPNGSLNELLHRKTEYPDVAWPLRFRILHEIALGVNYLHNMTPPLLHHDLKTQNILLDNEFHVKIADFGLSKWRMMSLSQSRSSKSAPEGGTIIYMPPENYEPGQKSRASIKHDIYSYAVITWEVLSRKQPFEDVTNPLQIMYSVSQGHRPVINEESLPYDIPHRARMISLIESGWAQNPDERPSFLKCLIELEPVLRTFEEITFLEAVIQLKKTKLQSV

Values joined by “and” are separate entries in the source; they are usually repeats but may differ in a detail not shown here. Equal entries are not always repeated.

In data set [1] the target is RIP2K^1-300 (kinase domain of human RIP2, residues 1-300) (human, UniProt O43353 1-300). The data set can be described thus: MST.
Data set [2] has as its target B7. Nature of the data set: native MS.
In data set [3] the target is B7. The data set can be described thus: cryo-EM structure.
The target of data set [4] is B7. Nature of the data set: NMR translational diffusion.
Data set [5] concerns the molecule itself. The data set can be described thus: native MS.

B1: XIAP BIR2^93-240 (domain or fragment)
chain: GPINGFYLENSATQSTNSGIQNGQYKVENYLGSRDHFALDRPSETHADYLLRTGQVVDISDTIYPRNPAMYSEEARLKSFQNWPDYAHLTPRELASAGLYYTGIGDQVQCFCCGGKLKNWEPCDRAWSEHRRHFPNCFFVLGRNLNIRSE
On to B1, for which the binding result in data set [1] is recorded as “binds”.

B2: XIAP BIR2^154-240 (domain or fragment)
chain: YPRNPAMYSEEARLKSFQNWPDYAHLTPRELASAGLYYTGIGDQVQCFCCGGKLKNWEPCDRAWSEHRRHFPNCFFVLGRNLNIRSE
In general, Kd refers to the free concentration of one partner at which half of the binding sites on the other are occupied at equilibrium, for simple one-to-one binding. High values mean weaker binding, low ones tighter binding. As for B2, binding in data set [1] was characterised by a dissociation constant (Kd) of 85.6 ± 18.7 nM. For the same molecule, the entries for the “stoichiometry N” value in data set [2] and in data set [3] were 1 RIP2K per XIAP BIR2 (2:2) and 2 RIP2K per XIAP BIR2 (2:1), respectively.

B3: XIAP BIR2AG^154-240 (domain or fragment)
chain: YPRNPAMYSEEARLKSFQNWPDYAHLTPRELASAGLYYTGIGDQVQCFACGGKLKNWEPGDRAWSEHRRHFPNCFFVLGRNLNIRSE
As for B3, the “stoichiometry N” value in data set [2] was 2 RIP2K per XIAP BIR2 (2:1) and 1 RIP2K per XIAP BIR2 (2:2).

B4: XIAP BIR2^124-263 (domain or fragment)
chain: GPRDHFALDRPSETHADYLLRTGQVVDISDTIYPRNPAMYSEEARLKSFQNWPDYAHLTPRELASAGLYYTGIGDQVQCFCCGGKLKNWEPCDRAWSEHRRHFPNCFFVLGRNLNIRSESDAVSSDRNFPNSTNLPRNPSMA
With B4, in data set [1], the binding result is given as “binds”.

B5: XIAP BIR2^124-240 (domain or fragment)
chain: GPRDHFALDRPSETHADYLLRTGQVVDISDTIYPRNPAMYSEEARLKSFQNWPDYAHLTPRELASAGLYYTGIGDQVQCFCCGGKLKNWEPCDRAWSEHRRHFPNCFFVLGRNLNIRSE
As for B5, the “stoichiometry N” value in data set [2] is 1 RIP2K per XIAP BIR2 (2:2) and 2 RIP2K per XIAP BIR2 (2:1).

B6: XIAP BIR2AG^124-240 (domain or fragment)
chain: GPRDHFALDRPSETHADYLLRTGQVVDISDTIYPRNPAMYSEEARLKSFQNWPDYAHLTPRELASAGLYYTGIGDQVQCFACGGKLKNWEPGDRAWSEHRRHFPNCFFVLGRNLNIRSE
Take B6: the “stoichiometry N” value is 1 RIP2K per XIAP BIR2 (2:2) in data set [2] and 2 RIP2 per BIR2 (1:2 BIR2:RIP2) in data set [4].
B7: the “stoichiometry N” value in data set [5] was 2.

B8: XIAP BIR2^93-263 (domain or fragment)
chain: GPINGFYLENSATQSTNSGIQNGQYKVENYLGSRDHFALDRPSETHADYLLRTGQVVDISDTIYPRNPAMYSEEARLKSFQNWPDYAHLTPRELASAGLYYTGIGDQVQCFCCGGKLKNWEPCDRAWSEHRRHFPNCFFVLGRNLNIRSESDAVSSDRNFPNSTNLPRNPSMA
Take B8: the binding result in data set [1] is “binds”.
